Among the data in article doi:10.1101/317677 are Kd values, retold here.

This series addresses T1, Lon (wildtype) (UniProt P0CAW0 1-799).
T1 sequence: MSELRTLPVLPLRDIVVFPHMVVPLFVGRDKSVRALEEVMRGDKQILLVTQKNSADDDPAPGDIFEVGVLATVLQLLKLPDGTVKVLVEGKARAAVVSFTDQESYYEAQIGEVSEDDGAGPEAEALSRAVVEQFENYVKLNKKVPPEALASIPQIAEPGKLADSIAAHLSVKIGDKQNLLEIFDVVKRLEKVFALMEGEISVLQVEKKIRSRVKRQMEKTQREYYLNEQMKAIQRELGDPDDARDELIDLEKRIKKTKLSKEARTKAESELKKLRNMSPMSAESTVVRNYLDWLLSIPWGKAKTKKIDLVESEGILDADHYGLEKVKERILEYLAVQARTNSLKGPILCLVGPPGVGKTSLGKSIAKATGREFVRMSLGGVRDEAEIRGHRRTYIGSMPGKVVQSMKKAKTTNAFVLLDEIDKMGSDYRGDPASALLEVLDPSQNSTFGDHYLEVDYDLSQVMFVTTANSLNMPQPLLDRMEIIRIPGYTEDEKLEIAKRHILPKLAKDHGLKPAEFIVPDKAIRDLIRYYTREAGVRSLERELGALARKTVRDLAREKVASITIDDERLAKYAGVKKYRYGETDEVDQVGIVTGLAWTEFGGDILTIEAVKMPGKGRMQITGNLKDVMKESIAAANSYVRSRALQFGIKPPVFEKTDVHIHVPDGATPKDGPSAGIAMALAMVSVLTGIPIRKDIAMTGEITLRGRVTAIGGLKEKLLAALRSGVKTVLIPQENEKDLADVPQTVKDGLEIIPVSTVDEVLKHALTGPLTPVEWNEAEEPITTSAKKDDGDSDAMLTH
Briefly: fluorescence polarization. For orientation: Fluorescence polarisation rises when a labelled molecule tumbles more slowly, as on binding a larger partner.

On to AACGGATGATCCACAGGAGAGTCTGGCGCAGGGCGAGAG (ssDNA) [FAM-DNA oligo], for which binding was put at a Kd of 286 nM.
